The nature of this data set: yeast display, Sf9 membrane polyspecificity reagent, FACS + sequencing; frameworks hold sequencing errors. Put shortly:
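After 36–48 hours of galactose induction, yeast (Saccharomyces cerevisiae BJ5465) displaying a synthetic nanobody library were stained at 4 °C for 1 hour with 10% biotinylated, detergent-solubilized Sf9 membrane reagent. Streptavidin microbeads enriched the stained cells before FACS sorting into low and high (top ~1%) gates on anti-HA and streptavidin fluorescence. Each clone's polyreactivity label reflects its gate of origin.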
On to “QDQLVESGGGLVQAGGSLRLSCAASGSTFKYNAMGWYRQAPGQERELVAAITSGGSTDYADSVKGRFTISRDNAMNHVYFQMNLLNPEDTAVYYCNDDIYPHDGYPWQGDYDYWGQGTQVTVSS”, for which the “polyreactivity (PSR sort gate)” value is given as “low polyreactivity”.

As to “QVQLVESGGGLDQAGGSLRLSCAASGYVMGWYRQAPGKERELVASITRGTSTYYADSVKGRFTISRDNAKNTVYLQMNSLKPEDTAVYYCAARTTSGEWPPGKIGTYLYDYWGQGTQVTVSS”, the “polyreactivity (PSR sort gate)” value is listed as “low polyreactivity”.

Take “QVQLVESGGGLVQAGGSLRLSCAASGRTFPGTAMGWYRQAPGKVRELVAAISSSGGSTHYADSVKGRFTISRDTAKNTVYYQMNSLKPEDTAVYYCNTVYAVWYKLDYWGQGTQVTVSS”: the “polyreactivity (PSR sort gate)” value is on record as “high polyreactivity”.

Turning to “HVQLVESGAGLVQAGGSLRLSCAASGSTLRYYAMGWYRQAPGKERELVAAISTVGSTYYADSVKCRFTISRDNAKNTVNLQMNILKPEDTAVYYCAAEPWANTPGDAGSPFDYWGQGTQVTVSS”, the “polyreactivity (PSR sort gate)” value was “low polyreactivity”.

“QVQLVESGGGLVQAGGSLRLSCAASGFTFLYNAMGWYRQAPGKERELVAAIDSGGMTNYADSVKGRFTISRDNAKNTVYLQMKSLKPEDTAVYYCAARFTQYITSDDGHYYYWGQGTQVTVSS”: the “polyreactivity (PSR sort gate)” value is “low polyreactivity”.

Consider “QVQLVESGGGLVQAGGSLRLSCAASGSTFPSYAMGGYRPAPGKERELVAAINRSGGSTYYADSVKGRFTISRDNAKNTVYLQMNSLKPEDTAVYYCATGLTTGGGYYWGQGTQVTVSS”, for which the “polyreactivity (PSR sort gate)” value is “high polyreactivity”.

For “QVQHVESGGGLVQAGGSLRLSCAASGYIFPGSAMGWYRPAPGKERELVAAISTSGGYTYYADSVKGRFTISRDNAKNTVYFQMNSLNPEVTAVYYCAADRYSTDPYAKGTEFYYWGQGTQVTVSS”, the “polyreactivity (PSR sort gate)” value is on record as “low polyreactivity”.

As for “QVQLVESGGGLVQAGGSLRLSCAASGFTFPWYAMGWDRQAPGKERELVASISYRGDSTYYADSVKGRFTFSRDNAKNTVYLQMNSLKPEDTAVYYCNKRLASYYLPGFDYWGQGTQVSVSS”, the “polyreactivity (PSR sort gate)” value is listed as “low polyreactivity”.

In the case of “QVQLVESGGGLVQAGGSLRLSCAASGRTFIPNAMGWYRQAPGKERELVARITLRGGSTYYADSVKGRFTISRDNAKNTVYLQMNSLKPEDTAVYYCAAVFSRKGLRYDYWGQGTQVTVSS”, the “polyreactivity (PSR sort gate)” value is given as “low polyreactivity”.

As to “QVQLVESGGGLVQAGGTLRLSCAASGRIFWAYAMGRYRQAPGKERELVAAITRSGGYTRYADSVKGRFTISRDNAKNTVYLLMNSLKPEDTAVYYCNAYAPRQLYGYDYWGQGSQVTVSS”, the “polyreactivity (PSR sort gate)” value is given as “high polyreactivity”.

“QVQLVESGGGLVQAGGSLRLSCAASGRIFRVYAMGWYRQAPGKERELVAAISSSGSSTYYADSVKGRFTISRDNAKYTVYLQMNSLKPEDTAVYYCAARGYDISSRYDYWGQGTQVTVSS”: the “polyreactivity (PSR sort gate)” value is on record as “high polyreactivity”.

For “QVQLVESGGGLVQAGGSLRLTCAASGRTLGGYTMGWSRQAPGKERELVAAITTGGSTNYADSVKGRFTISRDNAKNTVYLQMNSLKPEDTAVYYCATELVFDKRYWYDYWGQGTQVTVSS”, the “polyreactivity (PSR sort gate)” value is listed as “low polyreactivity”.

Take “QVQLVESGGGLVQAGGSLRLSCAASGSTFDGNAMGWYRQAPGKERELVAAITSGGSTNYADSVKGRFTISRDNAKNTVYLQMNSLKPEDTAVYYCAADTVSFSILYDYWGQGTQVTVSS”: the “polyreactivity (PSR sort gate)” value is recorded as “low polyreactivity”.

As for “QVQLVESGGGLVQAGGSLRLSCAASGRVLPPNAIGWYRQAPGKERELVAAINWSSGRTYYADSVKGRFTISRDYAKNSVYLQMNSLKPEDTAVYDCAKAYRYAYGYDYWGQGTQVTVSS”, the “polyreactivity (PSR sort gate)” value was “high polyreactivity”.

With “QVQLQEGGGGLVQAGGSLRLSCAASGYIFNGDWMGWYRQAPGKERELVATINYGATTNYADSVKGRFTISRDNAKNTVYLQMNSLKPEDTAVYYCAVGGHGAQLYVYWGQGTQVTVSN”, the “polyreactivity (PSR sort gate)” value is recorded as “high polyreactivity”.

Consider “QVQLVESGGGLVQAGGSLRLSCAASGSIFIDYAMGWYRQAPGKERELVAAISWSGGSTYYADSVKGRFTISRDNAKNTVYLQMNSLKPEDTAVYYCAAYSHVSIWYDYDYWGQGTQVTVSS”, for which the “polyreactivity (PSR sort gate)” value is recorded as “low polyreactivity”.

As for “QVQLVESGGGLVQAGGSLRLSCAASGLTFQPNVMGWYRQATGKERELVAAISVRTTRTYYADSVKGRFTISRDNAKNTVYLQMNSLKPEDTAVYYCNTDISRNYYWALYGYWGQGTQVTVSS”, the “polyreactivity (PSR sort gate)” value is listed as “low polyreactivity”.

For “QVQLVESGGGLDQAGGSLRLSCAASGSIFRWYAMGWYRQAPGKEREFVAAITSSGGSTYYADSVKGRFTISRDTAKNTVYLQINSVKPEDTAVYYCNRRYQPYSYDYWGEGTQVTVSS”, the “polyreactivity (PSR sort gate)” value is listed as “high polyreactivity”.

For the sequence “QVQLVESGGGLVQAGGSLRLSCAASGSTFIPYAMGWYRQAPGKERELVAAIRGGDGSTYYADSVKGRFTISRDNAKNTVYLQMNSLKPEDTAVYYFAADTVITAYFDRFWRYNYWGQGTQVTVSS”, the “polyreactivity (PSR sort gate)” value is “low polyreactivity”.

“QVQLVESGGGLVQAGGSLRLSCAASGRIFNYYDMGWYRQAPGKEREFVAAISWRGTSTRYADSVKGRFTISRDNAKNTVYLQMNSLKPEDTAVYYCAADDYARRFSFKYDYWGQGTQVTVSS”: the “polyreactivity (PSR sort gate)” value is “high polyreactivity”.

With “QVQLVESGGGLVQAGGSLRLSCAASGFTFLKYAMGWYIQAPGKERELVARITSGGRTYYADSVKGRFTISRDNAKNTVYLQMNSLKPEDTAVYYCNAVKSYASLYAGFYYWGQGTQVTVSS”, the “polyreactivity (PSR sort gate)” value is “high polyreactivity”.

On to “QVQLVESGGGLVQAGGSLRLSCAASGSIVEYYAMGWYRQAPGKERELVAAISTGGSTYYADSVKGRFTISRDNAKNTVYLQMNSLKPEDTAVYYCAAEDYHPGADTVGTGYDYWGQGTQVTVSS”, for which the “polyreactivity (PSR sort gate)” value was “low polyreactivity”.

Take “QVQLVESGGRLVQAGGSLRLSCAASGRIFKYYAMGWYRPAPGKERELVAAINRDGGRTYYADSVKGRFTISRDTAKISVYLQMNSLKPEDTAVYYCAASYGYVYTTSLDYWGQGTQVTVSS”: the “polyreactivity (PSR sort gate)” value is “low polyreactivity”.

Consider “QVQLQESRGGLVQAGGSLRLSCAASGSITHYIFMGWYRQAPGKEREFVAGIGYGGTTNYADSVKGRFTISRDNAKNTVFLQMNSLKPEDTAMYYCAAREATEFYLYYWGQGTQVTVSS”, for which the “polyreactivity (PSR sort gate)” value is recorded as “low polyreactivity”.

As for “QVQLVESGGGLVQAGGSLRLSCSASGTFYGYAMAWSRQAPGKERELVASSTWGGGRTYYADSVKGRFTTSRDNAKNTVYLQMNSLKPEDTAVYYCATRSRPQYNKYDYWGQGTQVTVSS”, the “polyreactivity (PSR sort gate)” value is on record as “high polyreactivity”.

Regarding “QVQLVESGGGLVQAGGSLRLTCAASGSIFLSYAMGWYRQPPGKDRELVAAISGGVNTYYADSVKGSFTISRDNAKNTVYLQMNSLKPEDTAVYYCYAVPHIYAEGTAYNYWGQGTQVTVSS”, the “polyreactivity (PSR sort gate)” value is “low polyreactivity”.

Consider “QVQLVESGGGLVQAGGSLRLSCAASGIIFPYYAMGWSRQGPGKERELVAGISSSGGITYADSVKGRFTISRDNAKYTVYLQMNSLKPEDTAVYYCNAEYQWLEYDYWGQGTQVTVSS”, for which the “polyreactivity (PSR sort gate)” value is given as “low polyreactivity”.

Regarding “QVQLVESGGCLVQAGGSLRLSCAASGITFVGNAMGCYRQAPVKERELVAGIRGNGGSTYYADSVKGRFTISRDYAKNTVYLQMNSLKPEDTAVYYCAAAAYYADFDYWGQGTQVTVSS”, the “polyreactivity (PSR sort gate)” value is reported as “low polyreactivity”.

On to “QVQLVESGGGLVQAGGSLRLSCAASGNIFRKYAMGWYRQAPGKERELVATISYSGGSTYYADSVKGRFTISRDNAKNTVYLQMNSLKPEDTAVYYCNAVKDLDSSFDYWGQGTQVTVSS”, for which the “polyreactivity (PSR sort gate)” value is “low polyreactivity”.

In the case of “QVQLVESGGGLVQAGGSLRLSCAASGRTFSYYGMGWYRQAPGKERELVAAITNSVGRTYYADSVKGRFTISRDNEKNTVYLHMNSLKPEDTAVYYCKKYGRYYYWGQGTQVTVSS”, the “polyreactivity (PSR sort gate)” value is “low polyreactivity”.

In the case of “QVQLVESGGGLVQARGSLRLSCAASGSTFGRYAMGSYRQAPGIERELVAAISLGTTTNYADSVKGRFTISRDNAKNTVYLQMNSLKPEDTAVSYCAADQPSKRYYYWGQGTQVTVSS”, the “polyreactivity (PSR sort gate)” value is “low polyreactivity”.

In the case of “QVQLVESGGGLVQAGGSLRLSCAASGSTFPTNAMGWYRQAPGKERELVAAISQRGDSTSYADSVKGRFTISRDNAKNTVYLQMNSLKPEDTAVYYCAARPLYSYSQWGYGYWGQGTQVTVSS”, the “polyreactivity (PSR sort gate)” value is reported as “high polyreactivity”.

For the sequence “QVQLVESGGGLVQAGGSLRLSCAASGRTFLVYTMGWYRQAPGKERELVAAISWSDGSTYYADSVKGRFTISRDNAKNTVYLQMNSLKPEDTAVYYCAARRTGYLYRYGYWGQGTQVTVSS”, the “polyreactivity (PSR sort gate)” value was “low polyreactivity”.

Consider “KVQLVESGGGLVQAGGSLRLSCAASGLTFSFYAMGWYRQAPGKERELVAAITYSGDSTYYADSVKGRFTISRDNAKNTVYLQLNSLKPEDTAVYYCAAYVYQTPHSLHIYEYWGQGTQVTVSS”, for which the “polyreactivity (PSR sort gate)” value is given as “low polyreactivity”.

As to “QVQLVESGGGLVQAGGSLRLSCAAYGFIFLENDMGWYRQAPGKERELVASINSGSDTNYADSVKGRFTISRDNAKNTVYLQMNSLKPEDTAVYYCNASYNGVPARYDYWGQGTQVTVSS”, the “polyreactivity (PSR sort gate)” value is on record as “low polyreactivity”.

On to “QVQLVESGGGLVQAGGSLRLSCAASGGIFAPYAMGWYRTAPGKERELVAAISSSDGSTYYADSVKGRFTISRDNAQNTVYLHMNSLKTVDTAVYYCAADYREDYGYWGEGTQVTVSS”, for which the “polyreactivity (PSR sort gate)” value is given as “low polyreactivity”.

In the case of “QVQLVESGGGLIQAGGSLRLSCAASGIIFYPYTMGWYRQAPGKERELVAAIRQSGTSTYYADSVKGRFTISRDNAKNTVYLQMNSLKPEDTAVYYCAAPPYYSYDYWGQGTQVTVSS”, the “polyreactivity (PSR sort gate)” value was “low polyreactivity”.

In the case of “QVQLVESGGGLVQAGGSLRLSCAASGSTFRWYAMGWYRQAPGKERELVAAITAGGRTYYADSVKGRFTISRDNAKNTVYLQMTSLKPEDTAVYYCNALGKPTWYATTYDYWGQGTQVTVSS”, the “polyreactivity (PSR sort gate)” value is “high polyreactivity”.

Turning to “QDQLVESGGGLVQAGGSLRLSCAASGFIFGLYAMGWYRQAPGKERELVAAISSGGSTYYADSVKGRFTISRDNAKNTVYLQMNSLKPEDTAVYYCAAYYVYSEYDYWGQGTQVTVSS”, the “polyreactivity (PSR sort gate)” value is “high polyreactivity”.

For the sequence “QGQLVESGGRLVQAGGSLRLSCAASGRIFGWYDMGWYREEPGKERELVAAINWSGGSTYYADSVKGRFTISRDNEKNTFYLQMNCLKPEDTAVYYCAADVAQVGYQVGVSEIYPGYEYWGQGTQVNVSS”, the “polyreactivity (PSR sort gate)” value is recorded as “low polyreactivity”.

Take “QVQLVESGGGLVQAGGSLRLSCAASGSIFPVNAMGWYRQAPGKEREFVAAINVIGGSTYYADSVKGRFTISRDNAKNTVYLQMNSLKPEVTAVYYCAVEGYSILFGMDYLGQGTQVTVSS”: the “polyreactivity (PSR sort gate)” value was “low polyreactivity”.

These data come from the nanobody polyreactivity screen of Harvey et al. (2022).
